Assay results: patent US20240316099A1

Target: NKG2D ligands
Test: cell-based or functional assay

B1: chimeric NKG2D receptor (NKG2D.ζ), expressed on primary human NK cells (receptor)
chain: MRVKFSRSAEPPAYQQGQNQLYNELNLGRREEYDVLDKRRGRDPEMGGKPRRKNPQEGLYNELQKDKMAEAYSEIGMKGERRRGKGHDGLYQGLSTATKDTYDALHMQALPPRGWIRGRRSRHSWEMSEFHNYNLDLKKSDFSTRWQKQRCPVVKSKCRENASPFFFCCFIAVAMGIRFIIMVAIWSAVFLNSLFNQEVQIPLTESYCGPCPKNWICYKNNCYQFFDESKNWYESQASCMSQNASLLKVYSKEDQDLLKLVKSYHWMGLVHIPTNGSWQWEDGSILSPNLLTIIEMQKGDCALYASSFKGYIENCSTPNTYICMQRTV
  cytotoxicity against autologous MDSCs, 4-hour chromium-release assay, E:T ratio of 5:1: 35%
  cytotoxicity against wild-type K562 in a 4-hour cytotoxicity assay, 2:1 E:T ratio: 79.2%
  lysis of autologous immature dendritic cells, E:T ratio of 20:1: 4.2%
